Measured values published in publication PMC9482650, “Quantitative fragmentomics allow affinity mapping of interactomes” (Nature Communications, 2022).
One block for each binder: values may come before it.

Key:
Assay in all cases: holdup assay
Parameters in all cases: key: below the threshold = too weak to quantify, mostly under pKd 3.1 to 4
[1] = target: T1, APBA1_1, Q02410
T1 sequence (Q02410 651-752, limits assumed, looked up): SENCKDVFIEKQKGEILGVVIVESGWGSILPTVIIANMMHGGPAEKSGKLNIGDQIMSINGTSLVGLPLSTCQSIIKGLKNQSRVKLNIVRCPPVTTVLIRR

[2] = target: T2, APBA2_2, Q99767
T2 sequence (Q99767 654-744, limits assumed, looked up): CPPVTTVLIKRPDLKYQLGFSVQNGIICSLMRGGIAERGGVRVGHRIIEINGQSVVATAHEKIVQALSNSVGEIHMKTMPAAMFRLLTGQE

[3] = target: T3, DFNB31_2, Q9P202
T3 sequence (Q9P202 274-371, limits assumed, looked up): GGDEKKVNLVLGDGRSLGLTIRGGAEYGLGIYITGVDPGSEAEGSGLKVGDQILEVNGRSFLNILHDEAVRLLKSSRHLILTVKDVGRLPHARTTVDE

[4] = target: T4, DFNB31_3, Q9P202
T4 sequence (Q9P202 811-907, limits assumed, looked up): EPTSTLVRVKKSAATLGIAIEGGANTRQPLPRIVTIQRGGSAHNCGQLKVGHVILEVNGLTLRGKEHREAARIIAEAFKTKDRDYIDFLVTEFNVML

[5] = target: DLG2_2, Q15700
DLG2_2, Q15700, sequence (Q15700 189-283): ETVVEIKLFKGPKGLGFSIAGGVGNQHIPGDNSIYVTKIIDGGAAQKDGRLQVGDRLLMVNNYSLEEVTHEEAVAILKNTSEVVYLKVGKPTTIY

[6] = target: T5, DLG3_1, Q92796
T5 sequence (Q92796 125-227, limits assumed, looked up): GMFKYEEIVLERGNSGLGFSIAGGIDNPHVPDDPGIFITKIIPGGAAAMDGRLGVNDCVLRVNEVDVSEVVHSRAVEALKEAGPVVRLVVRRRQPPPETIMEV

[7] = target: T6, FRMPD1, Q5SYB0
T6 sequence (Q5SYB0 52-145, limits assumed, looked up): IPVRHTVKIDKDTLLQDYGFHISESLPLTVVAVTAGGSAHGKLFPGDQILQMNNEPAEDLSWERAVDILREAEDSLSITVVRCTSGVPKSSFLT

[8] = target: FRMPD4, Q14CM0
FRMPD4, Q14CM0, sequence (Q14CM0 67-160): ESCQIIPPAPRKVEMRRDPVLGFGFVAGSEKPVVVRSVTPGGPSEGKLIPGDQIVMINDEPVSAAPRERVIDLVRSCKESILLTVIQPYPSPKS

[9] = target: GORASP2, Q9H8Y8
[10] = target: GRASP, Q7Z6J2
GRASP, Q7Z6J2, sequence (Q7Z6J2 96-193): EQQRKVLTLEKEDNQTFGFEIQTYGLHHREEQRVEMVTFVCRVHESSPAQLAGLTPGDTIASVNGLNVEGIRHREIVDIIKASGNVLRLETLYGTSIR

[11] = target: T7, GRIP1_2, Q9Y3R0
T7 sequence (Q9Y3R0 145-248, limits assumed, looked up): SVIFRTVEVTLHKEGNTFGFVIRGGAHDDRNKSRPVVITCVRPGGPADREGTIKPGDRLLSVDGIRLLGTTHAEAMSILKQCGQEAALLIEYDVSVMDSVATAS

[12] = target: GRIP2_7, Q9C0E4
GRIP2_7, Q9C0E4, sequence (Q9C0E4 934-1023): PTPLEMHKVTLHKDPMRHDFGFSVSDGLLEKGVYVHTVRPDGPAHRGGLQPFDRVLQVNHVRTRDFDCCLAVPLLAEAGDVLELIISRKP

[13] = target: HTRA1, Q92743
HTRA1, Q92743, sequence (Q92743 360-477): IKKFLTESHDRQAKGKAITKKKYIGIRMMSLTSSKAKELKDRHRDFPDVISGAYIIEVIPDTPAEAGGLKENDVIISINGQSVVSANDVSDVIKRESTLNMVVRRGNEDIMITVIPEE

[14] = target: T8, HTRA4, P83105
T8 sequence (P83105 378-476, limits assumed, looked up): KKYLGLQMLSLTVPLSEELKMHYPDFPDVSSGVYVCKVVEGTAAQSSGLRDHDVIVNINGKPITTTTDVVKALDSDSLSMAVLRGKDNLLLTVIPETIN

[15] = target: IL16_3, Q14005
IL16_3, Q14005, sequence (Q14005 1107-1207): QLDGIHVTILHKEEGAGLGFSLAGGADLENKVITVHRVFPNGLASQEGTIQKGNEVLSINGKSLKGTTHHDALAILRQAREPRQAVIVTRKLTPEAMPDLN

[16] = target: T9, LIN7A, O14910
T9 sequence (O14910 103-200, limits assumed, looked up): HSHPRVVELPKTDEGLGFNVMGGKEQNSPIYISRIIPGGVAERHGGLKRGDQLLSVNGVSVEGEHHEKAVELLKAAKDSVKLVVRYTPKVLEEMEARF

[17] = target: LNX1_2, Q8TBB1
LNX1_2, Q8TBB1, sequence (Q8TBB1 371-470): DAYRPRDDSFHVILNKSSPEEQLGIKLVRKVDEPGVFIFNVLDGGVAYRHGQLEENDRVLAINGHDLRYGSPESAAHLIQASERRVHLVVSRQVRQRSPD

[18] = target: MAGI1_1, Q96QZ7
MAGI1_1, Q96QZ7, sequence (Q96QZ7 1-106): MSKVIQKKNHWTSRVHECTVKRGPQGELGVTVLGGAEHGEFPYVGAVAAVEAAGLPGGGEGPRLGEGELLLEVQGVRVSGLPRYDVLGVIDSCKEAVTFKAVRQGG

[19] = target: MAGI2_4, Q86UL8
MAGI2_4, Q86UL8, sequence (Q86UL8 772-865): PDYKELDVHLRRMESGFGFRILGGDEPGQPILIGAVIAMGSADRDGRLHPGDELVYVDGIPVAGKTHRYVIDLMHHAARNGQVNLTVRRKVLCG

[20] = target: MAGI2_6, Q86UL8
MAGI2_6, Q86UL8, sequence (Q86UL8 1141-1229): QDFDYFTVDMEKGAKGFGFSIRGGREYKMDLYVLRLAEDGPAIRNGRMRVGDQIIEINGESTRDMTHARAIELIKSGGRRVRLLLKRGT

[21] = target: MAST2, Q6P0Q8
MAST2, Q6P0Q8, sequence (Q6P0Q8 1099-1202): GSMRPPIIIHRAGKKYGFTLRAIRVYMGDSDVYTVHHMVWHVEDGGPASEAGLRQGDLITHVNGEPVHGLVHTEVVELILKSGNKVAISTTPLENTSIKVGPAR

[22] = target: T10, MPP2, Q14168
T10 sequence (Q14168 180-250, limits assumed, looked up): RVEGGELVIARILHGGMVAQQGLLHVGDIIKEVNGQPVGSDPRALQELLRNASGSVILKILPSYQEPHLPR

[23] = target: T11, PARD3B_1, Q8TEW8
T11 sequence (Q8TEW8 196-299, limits assumed, looked up): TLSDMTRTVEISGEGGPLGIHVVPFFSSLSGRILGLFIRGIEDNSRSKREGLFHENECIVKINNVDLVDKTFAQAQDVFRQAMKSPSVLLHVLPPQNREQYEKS

[24] = target: SCRIB_1, Q14160
SCRIB_1, Q14160, sequence (Q14160 718-814): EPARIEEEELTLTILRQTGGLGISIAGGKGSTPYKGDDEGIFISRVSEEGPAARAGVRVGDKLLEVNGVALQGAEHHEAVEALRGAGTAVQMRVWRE

[25] = target: T12, SNTA1, Q13424
T12 sequence (Q13424 82-180, limits assumed, looked up): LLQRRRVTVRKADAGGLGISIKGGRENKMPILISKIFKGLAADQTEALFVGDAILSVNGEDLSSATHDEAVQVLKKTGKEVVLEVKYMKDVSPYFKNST

[26] = plain residues with an end cap or a label only (N-terminal biotin on a linker: ahx)
[27] = plain residues with an end cap or a label only (N-terminal biotin on a linker: ttds)

pKd [1, 26]: 3.49
pKd [2, 26]: below the threshold
pKd [3, 26]: below the threshold
pKd [4, 26]: below the threshold
pKd [5, 26]: below the threshold
pKd [6, 26]: 3.56
pKd [7, 26]: below the threshold
pKd [8, 26]: 3.5
pKd [9, 26]: 3.55
pKd [10, 26]: 3.57
pKd [11, 26]: below the threshold
pKd [12, 26]: below the threshold
pKd [13, 26]: 3.61
pKd [14, 26]: below the threshold
pKd [15, 26]: below the threshold
pKd [16, 26]: 3.52
pKd [17, 26]: 3.65
pKd [18, 26]: below the threshold
pKd [19, 26]: 3.49
pKd [20, 26]: below the threshold
pKd [21, 26]: below the threshold
pKd [22, 26]: below the threshold
pKd [23, 26]: 3.55
pKd [24, 26]: below the threshold
pKd [25, 26]: 3.56
Binder: HNAFLSVTTV [PDZRN4, Q6ZMN7]

pKd [1, 27]: below the threshold
pKd [2, 27]: below the threshold
pKd [3, 27]: below the threshold
pKd [4, 27]: below the threshold
pKd [5, 27]: 3.98
pKd [6, 27]: below the threshold
pKd [7, 27]: below the threshold
pKd [8, 27]: below the threshold
pKd [9, 27]: below the threshold
pKd [10, 27]: below the threshold
pKd [11, 27]: below the threshold
pKd [12, 27]: below the threshold
pKd [13, 27]: below the threshold
pKd [14, 27]: below the threshold
pKd [15, 27]: below the threshold
pKd [16, 27]: below the threshold
pKd [17, 27]: below the threshold
pKd [18, 27]: below the threshold
pKd [19, 27]: 3.55
pKd [20, 27]: 4.14
pKd [21, 27]: 5.16
pKd [22, 27]: below the threshold
pKd [23, 27]: below the threshold
pKd [24, 27]: 5.08
pKd [25, 27]: 4.69
Binder: EVVHTPETSV [SLC16A3, O15427]

pKd [1, 27]: below the threshold
pKd [2, 27]: below the threshold
pKd [3, 27]: 4.12
pKd [4, 27]: below the threshold
pKd [5, 27]: 5.5
pKd [6, 27]: 4.51
pKd [7, 27]: below the threshold
pKd [8, 27]: 3.4
pKd [9, 27]: 4.02
pKd [10, 27]: 3.47
pKd [11, 27]: below the threshold
pKd [12, 27]: below the threshold
pKd [13, 27]: 3.64
pKd [14, 27]: below the threshold
pKd [15, 27]: below the threshold
pKd [16, 27]: 4.38
pKd [17, 27]: 3.42
pKd [18, 27]: below the threshold
pKd [19, 27]: 4.24
pKd [20, 27]: 3.98
pKd [21, 27]: 4.93
pKd [22, 27]: below the threshold
pKd [23, 27]: 3.45
pKd [24, 27]: 4.95
pKd [25, 27]: 6.66
Binder: RLPKIKETTV [FRMPD4, Q14CM0]
